Assay results as given in article doi:10.1101/2022.08.02.502557.

Target: Trimeric LHCII complexes (the major antenna complex of photosystem II) (spinach)
Assay: native gel or EMSA

- stoichiometry N: 3
Substance: Trimeric LHCII complexes (the major antenna complex of photosystem II)
